One assay deals with hP1R (human) (UniProt Q03431). Put plainly: competition binding, 125I-PTH(1-15) tracer, HKRK-B7 cells.
Another assay addresses -. Put plainly: competition binding, 125I-PTH(1-15) tracer, HKRK-B28 cells.
In assay [1] the target is wild-type human P1R (human) (UniProt Q03431). Put plainly: competition binding, 125I-PTH(1-15) tracer, HKRK-B7 cells.

Usually IC50 stands for the midpoint of a concentration-inhibition curve.

Sequence of [Ile^5, Trp^23, Tyr^36]PTHrP(5-36)NH2 (P12272 41-72): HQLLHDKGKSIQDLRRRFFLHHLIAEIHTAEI
Sequence of hP1R (human) (Q03431 27-593): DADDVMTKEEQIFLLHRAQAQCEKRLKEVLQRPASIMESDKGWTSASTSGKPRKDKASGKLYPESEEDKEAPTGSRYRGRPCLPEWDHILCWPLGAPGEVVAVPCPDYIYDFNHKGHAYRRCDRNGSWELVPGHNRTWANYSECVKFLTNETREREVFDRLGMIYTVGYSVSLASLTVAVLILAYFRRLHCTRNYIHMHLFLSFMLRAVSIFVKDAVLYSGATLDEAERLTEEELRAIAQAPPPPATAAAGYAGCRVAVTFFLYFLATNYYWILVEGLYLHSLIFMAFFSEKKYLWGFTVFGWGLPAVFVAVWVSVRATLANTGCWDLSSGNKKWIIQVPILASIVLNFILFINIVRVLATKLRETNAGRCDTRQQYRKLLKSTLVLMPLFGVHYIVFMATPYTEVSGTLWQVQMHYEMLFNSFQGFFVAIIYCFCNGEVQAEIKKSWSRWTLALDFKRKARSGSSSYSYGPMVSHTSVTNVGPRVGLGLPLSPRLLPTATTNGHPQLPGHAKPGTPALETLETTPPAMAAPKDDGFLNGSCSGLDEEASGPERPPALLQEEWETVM
Sequence of wild-type human P1R (human) (Q03431 27-593): as above

In turn, PTH(1-34) returned an IC50 with hP1R (human) of 0.002 µM.
In the case of [Aib1,3,M]PTH(1-21), the IC50 in the assay with - was determined as 0.018 µM.
Turning to [Aib3,M]PTH(3-21), the IC50 with - is 0.75 µM.
“[Ile^5, Trp^23, Tyr^36]PTHrP(5-36)NH2 (from UniProt P12272 41-72)”: the IC50 in assay [1] came out at 0.05 µM.
rPTH(1-34) yielded an IC50 with - of 0.0048 µM.

The values above are taken from US20070203071A1.
